Results on 61 substances are retold here after US10280205B2, “Method for treating cancer with an activated T lymphocyte that selectively recognizes a cancer cell consisting of specific peptide” (immatics biotechnologies GmbH, priority 2015, dated 2019).

This assay concerns the target HLA-A*02:01 (Homo sapiens, UniProt P04439, D140Y/D185E/D98H/E176V/E277Q/G131W/G231S/I119V/I121R/I166T/I218V/L300P/L318F/N151K/N90K/P208A/P217A/Q86G/Q94H/R138H/R169H/T345S). As to the kind of experiment: MHC binding assay: UV-ligand exchange with beta2m ELISA (exchange yield). The following applies: binding to HLA-A*02:01, β2m ELISA. Summed up: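 Exchange yield reflects how much β2m remains bound, measured by ELISA: streptavidin capture of 100-fold diluted monomers, HRP anti-β2m at 37° C. for 1 h, TMB read at 450 nm. Monomers come from UV cleavage of a conditional HLA-A*02:01 ligand in the presence of the candidate peptide.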
For the substance “132 (LLVEQPPLAGV; listed as Homo sapiens) [compound 132]”, the “Peptide exchange (MHC class I binding score, peptide exchange yield)” value (“Peptide exchange” for short) is ““+++” (≥50 = +++)”.
Consider “170 (RLQETLSAA; listed as Homo sapiens) [compound 170]”, for which the “Peptide exchange” value is given as ““+++” (≥50 = +++)”.
The result for “221 (ALYEEGLLL; listed as Homo sapiens) [compound 221]” reads ““++” (≥20% = ++)”; that for “488 (FLAEDPKVTL; listed as Homo sapiens) [compound 488]”, ““+++” (≥50 = +++)”.
Consider “550 (FLYDEIEAEVNL; listed as Homo sapiens) [compound 550]”, for which the “Peptide exchange” value is ““+++” (≥50 = +++)”.
Consider “155 (RVANLHFPSV; listed as Homo sapiens) [compound 155]”, for which the “Peptide exchange” value is recorded as ““+++” (≥50 = +++)”.
The value for “82 (FLSSVTYNL; listed as Homo sapiens) [compound 82]” was ““+++” (≥50 = +++)”; that for “344 (YLQDQHLLLTV; listed as Homo sapiens) [compound 344]” was ““+++” (≥50 = +++)”; that for “145 (FLATSGTLAGI; listed as Homo sapiens) [compound 145]” was ““++” (≥20% = ++)”.
Consider “153 (FLIANVLYL; listed as Homo sapiens) [compound 153]”, for which the “Peptide exchange” value was ““+” (≥10% = +)”.
As to “298 (VMITKLVEV; listed as Homo sapiens) [compound 298]”, the “Peptide exchange” value is given as ““+++” (≥50 = +++)”.
In the case of “481 (GLIEDYEALL; listed as Homo sapiens) [compound 481]”, the “Peptide exchange” value is ““+++” (≥50 = +++)”.
The result for “280 (VLPDPEVLEAV; listed as Homo sapiens) [compound 280]” reads ““+++” (≥50 = +++)”; that for “604 (SILDRDDIFV; listed as Homo sapiens) [compound 604]”, ““+++” (≥50 = +++)”.
With “84 (VTFGEKLLGV; listed as Homo sapiens) [compound 84]”, the “Peptide exchange” value is on record as ““++” (≥20% = ++)”.
The value for “455 (SLLKEPQKVQL; listed as Homo sapiens) [compound 455]” was ““++” (≥20% = ++)”; that for “497 (GLLEKLTAI; listed as Homo sapiens) [compound 497]” was ““+++” (≥50 = +++)”.
Turning to “128 (YLFDDPLSAV; listed as Homo sapiens) [compound 128]”, the “Peptide exchange” value was ““++” (≥20% = ++)”.
With “334 (TLTKVLVAL; listed as Homo sapiens) [compound 334]”, the “Peptide exchange” value is ““+++” (≥50 = +++)”.
Regarding “561 (YLQLTQSEL; listed as Homo sapiens) [compound 561]”, the “Peptide exchange” value was ““+++” (≥50 = +++)”.
As to “320 (KMFEFVEPLL; listed as Homo sapiens) [compound 320]”, the “Peptide exchange” value is given as ““++++” (≥75% = ++++)”.
Take “400 (SLLTEQDLWTV; listed as Homo sapiens) [compound 400]”: the “Peptide exchange” value is ““++” (≥20% = ++)”.
Turning to “577 (VMFEDGVLMRL; listed as Homo sapiens) [compound 577]”, the “Peptide exchange” value was ““+++” (≥50 = +++)”.
Regarding “491 (GLNDRSDAV; listed as Homo sapiens) [compound 491]”, the “Peptide exchange” value is ““++” (≥20% = ++)”.
Turning to “585 (ALWDLAADKQTL; listed as Homo sapiens) [compound 585]”, the “Peptide exchange” value was ““++++” (≥75% = ++++)”.
As to “329 (FLVTLNNVEV; listed as Homo sapiens) [compound 329]”, the “Peptide exchange” value is on record as ““++++” (≥75% = ++++)”.
Take “508 (ILAQEQLVVGV; listed as Homo sapiens) [compound 508]”: the “Peptide exchange” value is on record as ““+++” (≥50 = +++)”.
For the substance “115 (AIAGAGILYGV; listed as Homo sapiens) [compound 115]”, the “Peptide exchange” value was ““++” (≥20% = ++)”.
“330 (QLALKVEGV; listed as Homo sapiens) [compound 330]”: the “Peptide exchange” value is given as ““+++” (≥50 = +++)”.
Regarding “195 (GLFADLLPRL; listed as Homo sapiens) [compound 195]”, the “Peptide exchange” value is reported as ““+++” (≥50 = +++)”.
With “412 (YLDDLNEGVYI; listed as Homo sapiens) [compound 412]”, the “Peptide exchange” value is recorded as ““++” (≥20% = ++)”.
As for “594 (IMLKGDNITL; listed as Homo sapiens) [compound 594]”, the “Peptide exchange” value is listed as ““+++” (≥50 = +++)”.
For “467 (FLAKDFNFL; listed as Homo sapiens) [compound 467]”, the “Peptide exchange” value is listed as ““+++” (≥50 = +++)”.
In the case of “162 (YQQAQVPSV; listed as Homo sapiens) [compound 162]”, the “Peptide exchange” value is ““+++” (≥50 = +++)”.
The result for “20 (RMIEYFIDV; listed as Homo sapiens) [compound 20]” reads ““+++” (≥50 = +++)”; that for “175 (YLFENISQL; listed as Homo sapiens) [compound 175]”, ““+++” (≥50 = +++)”; that for “165 (SLLDEIRAV; listed as Homo sapiens) [compound 165]”, ““+++” (≥50 = +++)”.
On to “432 (TLIEESAKV; listed as Homo sapiens) [compound 432]”, for which the “Peptide exchange” value is ““++” (≥20% = ++)”.
With “341 (SQIALNEKLVNL; listed as Homo sapiens) [compound 341]”, the “Peptide exchange” value is on record as ““+++” (≥50 = +++)”.
The result for “504 (GLSDGNPSL; listed as Homo sapiens) [compound 504]” reads ““++” (≥20% = ++)”.
The result for “86 (NLIGKIENV; listed as Homo sapiens) [compound 86]” reads ““+++” (≥50 = +++)”; that for “186 (TLFFQQNAL; listed as Homo sapiens) [compound 186]”, ““++” (≥20% = ++)”; that for “324 (FLYDEIEAEV; listed as Homo sapiens) [compound 324]”, ““+++” (≥50 = +++)”.
As for “27 (ILADIVISA; listed as Homo sapiens) [compound 27]”, the “Peptide exchange” value was ““+++” (≥50 = +++)”.
The result for “81 (FLFSQLQYL; listed as Homo sapiens) [compound 81]” reads ““++” (≥20% = ++)”; that for “302 (ALLQEGEVYSA; listed as Homo sapiens) [compound 302]”, ““+++” (≥50 = +++)”; that for “59 (IMEDIILTL; listed as Homo sapiens) [compound 59]”, ““+++” (≥50 = +++)”.
Consider “249 (LLDGFLVNV; listed as Homo sapiens) [compound 249]”, for which the “Peptide exchange” value was ““+++” (≥50 = +++)”.
“599 (YLLNDASLISV; listed as Homo sapiens) [compound 599]”: the “Peptide exchange” value was ““+++” (≥50 = +++)”.
Turning to “401 (ILLDDTGLAYI; listed as Homo sapiens) [compound 401]”, the “Peptide exchange” value was ““+++” (≥50 = +++)”.
The value for “101 (ILVGGGALATV; listed as Homo sapiens) [compound 101]” was ““+++” (≥50 = +++)”; that for “124 (ALYETELADA; listed as Homo sapiens) [compound 124]” was ““++” (≥20% = ++)”; that for “336 (ILLTAIVQV; listed as Homo sapiens) [compound 336]” was ““+++” (≥50 = +++)”.
With “261 (YVLEFLEEI; listed as Homo sapiens) [compound 261]”, the “Peptide exchange” value is listed as ““++” (≥20% = ++)”.
For “28 (QLLDETSAITL; listed as Homo sapiens) [compound 28]”, the “Peptide exchange” value was ““+++” (≥50 = +++)”.
As to “4 (GIMEHITKI; listed as Homo sapiens) [compound 4]”, the “Peptide exchange” value is given as ““++++” (≥75% = ++++)”.
“282 (LLADVVPTT; listed as Homo sapiens) [compound 282]”: the “Peptide exchange” value is ““+++” (≥50 = +++)”.
The result for “396 (ALLPDLPAL; listed as Homo sapiens) [compound 396]” reads ““+++” (≥50 = +++)”; that for “315 (YLQDVVEQA; listed as Homo sapiens) [compound 315]”, ““+++” (≥50 = +++)”.
The result for “635 (SLDSTLHAV; listed as Homo sapiens) [compound 635]” reads ““+++” (≥50 = +++)”.
As to “181 (LLWAGTAFQV; listed as Homo sapiens) [compound 181]”, the “Peptide exchange” value is reported as ““+++” (≥50 = +++)”.
